Biological target: CD40 on APCs (CD2-depleted human PBMC) (human) (UniProt P25942)
Experiment: cell-based or functional assay

Chain of UniProt P25942 (P25942 21-277): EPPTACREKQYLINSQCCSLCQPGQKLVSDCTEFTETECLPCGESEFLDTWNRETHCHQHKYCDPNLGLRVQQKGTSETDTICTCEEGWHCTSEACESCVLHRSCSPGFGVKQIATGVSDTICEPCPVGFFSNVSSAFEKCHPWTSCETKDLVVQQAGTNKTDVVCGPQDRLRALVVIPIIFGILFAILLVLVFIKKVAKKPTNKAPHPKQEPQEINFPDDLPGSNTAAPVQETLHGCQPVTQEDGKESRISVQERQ

Which results are given for “CD40L constitutively expressed on the D1.1 Jurkat T cell line (from UniProt P29965 1-261) (ligand)”?
% Positive APCs for CD40 after 24 h with D1.1 cells (APC alone: 99(203)): 99%; % Positive APCs for CD54 after 24 h with D1.1 cells (APC alone: 60(350)): 85%; % Positive APCs for CD58 after 24 h with D1.1 cells (APC alone: 42(374)): 70%; % Positive APCs for CD80 after 24 h with D1.1 cells (APC alone: 17(90)): 41%; % Positive APCs for CD86 after 24 h with D1.1 cells (APC alone: 35(318)): 49%; MFI of CD40 on APCs after 24 h with D1.1 cells (APC alone: 99(203)) (scale: MFI): 312; MFI of CD54 on APCs after 24 h with D1.1 cells (APC alone: 60(350)) (scale: MFI): 358; MFI of CD58 on APCs after 24 h with D1.1 cells (APC alone: 42(374)) (scale: MFI): 380; MFI of CD80 on APCs after 24 h with D1.1 cells (APC alone: 17(90)) (scale: MFI): 141; MFI of CD86 on APCs after 24 h with D1.1 cells (APC alone: 35(318)) (scale: MFI): 327

mAb CD40 G28-5 (antibody) was tested. Which % Positive APCs for CD40 after 48 h with CD40 mAb on CD32+ L cells plus IL-4 (APC alone: 99(231)) did it give?
The % Positive APCs for CD40 after 48 h with CD40 mAb on CD32+ L cells plus IL-4 (APC alone: 99(231)) was 99%.

And the % Positive APCs for CD54 after 48 h with CD40 mAb on CD32+ L cells plus IL-4 (APC alone: 65(283))?
Its % Positive APCs for CD54 after 48 h with CD40 mAb on CD32+ L cells plus IL-4 (APC alone: 65(283)) is 97%.

What about the % Positive APCs for CD80 after 48 h with CD40 mAb on CD32+ L cells plus IL-4 (APC alone: 16(78)) of the same substance?
The % Positive APCs for CD80 after 48 h with CD40 mAb on CD32+ L cells plus IL-4 (APC alone: 16(78)) was 31%.

What about the % Positive APCs for CD86 after 48 h with CD40 mAb on CD32+ L cells plus IL-4 (APC alone: 30(310)) of the same substance?
Its % Positive APCs for CD86 after 48 h with CD40 mAb on CD32+ L cells plus IL-4 (APC alone: 30(310)) is 63%.

What about the MFI of CD40 on APCs after 48 h with CD40 mAb on CD32+ L cells plus IL-4 (APC alone: 99(231)) (scale: MFI) of the same substance?
Its MFI of CD40 on APCs after 48 h with CD40 mAb on CD32+ L cells plus IL-4 (APC alone: 99(231)) is 430.

And the MFI of CD54 on APCs after 48 h with CD40 mAb on CD32+ L cells plus IL-4 (APC alone: 65(283)) (scale: MFI)?
The MFI of CD54 on APCs after 48 h with CD40 mAb on CD32+ L cells plus IL-4 (APC alone: 65(283)) was 443.

And the MFI of CD58 on APCs after 48 h with CD40 mAb on CD32+ L cells plus IL-4 (APC alone: 40(315)) (scale: MFI)?
Its MFI of CD58 on APCs after 48 h with CD40 mAb on CD32+ L cells plus IL-4 (APC alone: 40(315)) is 458.

What about the MFI of CD80 on APCs after 48 h with CD40 mAb on CD32+ L cells plus IL-4 (APC alone: 16(78)) (scale: MFI) of the same substance?
Its MFI of CD80 on APCs after 48 h with CD40 mAb on CD32+ L cells plus IL-4 (APC alone: 16(78)) is 109.

What about the MFI of CD86 on APCs after 48 h with CD40 mAb on CD32+ L cells plus IL-4 (APC alone: 30(310)) (scale: MFI) of the same substance?
Its MFI of CD86 on APCs after 48 h with CD40 mAb on CD32+ L cells plus IL-4 (APC alone: 30(310)) is 464.
